Reference: patent US20260232827A1 (Zymeworks, published 2026)

Molecular target: T1, human sodium-dependent phosphate transporter 2B (NaPi2b) (human, UniProt O95436 1-690)
T1 construct: UniProt ID is given as 095436 [sic]; also called hNaPi2b; Hu NaPi2b
T1 sequence: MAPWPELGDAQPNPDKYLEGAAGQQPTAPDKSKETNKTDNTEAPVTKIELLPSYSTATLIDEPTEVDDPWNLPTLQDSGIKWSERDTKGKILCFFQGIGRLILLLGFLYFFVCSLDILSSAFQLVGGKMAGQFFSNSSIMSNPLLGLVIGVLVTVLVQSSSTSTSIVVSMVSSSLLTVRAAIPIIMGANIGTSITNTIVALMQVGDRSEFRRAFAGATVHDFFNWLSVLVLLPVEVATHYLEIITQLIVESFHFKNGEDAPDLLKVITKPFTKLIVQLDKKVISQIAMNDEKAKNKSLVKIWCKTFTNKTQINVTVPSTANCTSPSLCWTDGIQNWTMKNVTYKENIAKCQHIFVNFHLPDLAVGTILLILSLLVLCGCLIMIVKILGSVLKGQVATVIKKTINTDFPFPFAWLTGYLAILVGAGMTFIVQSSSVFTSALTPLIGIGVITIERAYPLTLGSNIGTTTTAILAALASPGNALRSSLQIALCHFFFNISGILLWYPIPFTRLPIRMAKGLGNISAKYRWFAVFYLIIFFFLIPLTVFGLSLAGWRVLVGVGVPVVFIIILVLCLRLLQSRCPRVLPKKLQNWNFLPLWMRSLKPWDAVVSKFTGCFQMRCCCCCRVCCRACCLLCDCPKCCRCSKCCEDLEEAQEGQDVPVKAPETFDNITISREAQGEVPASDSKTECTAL
Experiment: flow cytometry on IGROV-1 cells (endogenous NaPi2b), 24 h at 4 C, anti-human IgG Fc AF647
Protocol: Following incubation and washing, fluorescence was detected by flow cytometry on a BD LSRFortessa™ Cell Analyzer (BD Biosciences, Franklin Lake, NJ) with 1,000 minimum events collected per well.

B1: v18993 (lifastuzumab), reference anti-NaPi2b antibody (antibody, human IgG1, kappa)
heavy 1: GEVQLVESGGGLVQPGGSLRLSCAASGFSFSDFAMSWVRQAPGKGLEWVATIGRVAFHTYYPDSMKGRFTISRDNSKNTLYLQMNSLRAEDTAVYYCARHRGFDVGHFDFWGQGTLVTVSSASTKGPSVFPLAPSSKSTSGGTAALGCLVKDYFPEPVTVSWNSGALTSGVHTFPAVLQSSGLYSLSSVVTVPSSSLGTQTYICNVNHKPSNTKVDKKVEPKSCDKTHTCPPCPAPELLGGPSVFLFPPKPKDTLMISRTPEVTCVVVDVSHEDPEVKFNWYVDGVEVHNAKTKPREEQYNSTYRVVSVLTVLHQDWLNGKEYKCKVSNKALPAPIEKTISKAKGQPREPQVYVYPPSRDELTKNQVSLTCLVKGFYPSDIAVEWESNGQPENNYKTTPPVLDSDGSFALVSKLTVDKSRWQQGNVFSCSVMHEALHNHYTQKSLSLSPG
heavy 2: not shown
light: GDIQMTQSPSSLSASVGDRVTITCRSSETLVHSSGNTYLEWYQQKPGKAPKLLIYRVSNRFSGVPSRFSGSGSGTDFTLTISSLQPEDFATYYCFQGSFNPLTFGQGTKVEIKRTVAAPSVFIFPPSDEQLKSGTASVVCLLNNFYPREAKVQWKVDNALQSGNSQESVTEQDSKDSTYSLSSTLTLSKADYEKHKVYACEVTHQGLSSPVTKSFNRGEC
EC50 (read off the curve): ~3 nM

B2: v38591 (humanized anti-NaPi2b antibody, wild-type Fc) (antibody, human IgG1, kappa)
heavy: not shown
light: DVQMTQSPSSLSASVGDRVTITCRASQDVYSYLNWYQQKPGKAVKLLIYYTSRLQSGVPSRFSGSGSGTDYTLTISSLQPEDFATYYCQQYNIFPWTFGQGTKLEIKRTVAAPSVFIFPPSDEQLKSGTASVVCLLNNFYPREAKVQWKVDNALQSGNSQESVTEQDSKDSTYSLSSTLTLSKADYEKHKVYACEVTHQGLSSPVTKSFNRGEC
notes: also called v38591 Wild-type; H1L2
EC50 (read off the curve): ~2 nM

B3: v18992 (MX35), reference anti-NaPi2b antibody (antibody, human IgG1, kappa)
heavy 1: GQVQLVQSGAEVVKPGASVKMSCKASGYTFTGYNIHWVKQAPGQGLEWIGAIYPGNGDTSYKQKFRGRATLTADTSTSTVYMELSSLRSEDSAVYYCARGETARATFAYWGQGTLVTVSSASTKGPSVFPLAPSSKSTSGGTAALGCLVKDYFPEPVTVSWNSGALTSGVHTFPAVLQSSGLYSLSSVVTVPSSSLGTQTYICNVNHKPSNTKVDKKVEPKSCDKTHTCPPCPAPELLGGPSVFLFPPKPKDTLMISRTPEVTCVVVDVSHEDPEVKFNWYVDGVEVHNAKTKPREEQYNSTYRVVSVLTVLHQDWLNGKEYKCKVSNKALPAPIEKTISKAKGQPREPQVYVYPPSRDELTKNQVSLTCLVKGFYPSDIAVEWESNGQPENNYKTTPPVLDSDGSFALVSKLTVDKSRWQQGNVFSCSVMHEALHNHYTQKSLSLSPG
heavy 2: not shown
light: GDIQMTQSPSSLSASVGDRVTITCSASQDIGNFLNWYQQKPGKTVKVLIYYTSSLYSGVPSRFSGSGSGTDYTLTISSLQPEDFATYYCQQYSKLPLTFGQGTKLELKRTVAAPSVFIFPPSDEQLKSGTASVVCLLNNFYPREAKVQWKVDNALQSGNSQESVTEQDSKDSTYSLSSTLTLSKADYEKHKVYACEVTHQGLSSPVTKSFNRGEC
EC50 (read off the curve): ~2 nM
